According to patent publication US20210130452A1 (Merck KGaA, published 2021):

Tests used:
[1] = target: T1, human IL-17A/F heterodimer (human, UniProt Q16552 24-155; Q96PD4 31-163, limits assumed); test: cell-based or functional assay
human IL-17A [2] = target: T2, human IL-17A (human, UniProt Q16552 24-155); test: cell-based or functional assay
T2 sequence (Q16552 other isoform, or with tags, fused parts or gaps): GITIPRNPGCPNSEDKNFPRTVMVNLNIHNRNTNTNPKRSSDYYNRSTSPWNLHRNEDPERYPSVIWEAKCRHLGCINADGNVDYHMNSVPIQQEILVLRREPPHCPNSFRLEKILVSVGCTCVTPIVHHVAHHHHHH

human IL-17A [3] = target: T2, human IL-17A; test: AlphaScreen IL-17A-IL-17RA (average)
Cynomolgus monkey IL-17A = target: T3, Cynomolgus monkey IL-17A (Cynomolgus monkey, UniProt A0A2K5TTB0 24-155); test: SPR (Biacore) off-rate
T3 construct: also called cyno IL-17A; cIL-17A
T3 sequence (A0A2K5TTB0 entry or part of it): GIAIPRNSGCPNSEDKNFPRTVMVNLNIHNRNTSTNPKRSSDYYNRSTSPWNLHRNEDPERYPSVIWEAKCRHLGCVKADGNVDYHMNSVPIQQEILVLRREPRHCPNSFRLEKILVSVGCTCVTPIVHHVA

[4] = target: T1, human IL-17A/F heterodimer; test: SPR (Biacore) off-rate
human IL-17A [5] = target: T2, human IL-17A; test: SPR (Biacore) off-rate
human IL-17A [6] = target: T2, human IL-17A; test: competition ELISA IL-17A-IL-17RA
human IL-17A [7] = target: T4, human IL-17A (human, UniProt Q16552 24-155); test: competition ELISA IL17A-RA
T4 construct: secreted form (GenBank U32659) expressed in Hek293 with C-terminal 6-His; also called hIL-17A; IL-17A-6HIS
T4 sequence (Q16552 other isoform, or with tags, fused parts or gaps): as the sequence (Q16552 other isoform, or with tags, fused parts or gaps) above
Protocol: (§1) To this end, IL-17RA, respectively IL-17RC was coated at a concentration of 1 μg/ml in PBS.

marmoset IL-17A = target: T5, marmoset IL-17A (marmoset, IL-17A is a disulfide-linked homodimer. One chain is given.); test: ELISA, coated IL-17A
T5 chain: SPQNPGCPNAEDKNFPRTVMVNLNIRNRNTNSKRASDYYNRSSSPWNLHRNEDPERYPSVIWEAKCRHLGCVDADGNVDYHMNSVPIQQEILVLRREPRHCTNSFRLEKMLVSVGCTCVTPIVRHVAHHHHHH
Protocol: (§2) Binding of a selected panel of anti-IL-17 Nanobodies to IL-17 of other species was assessed using a binding ELISA. […] HRP (horseradish peroxidase) conjugated anti-myc (Serotec, MCA 2200P) was used for detection using esTMB as substrate.

mouse IL-17A = target: T6, mouse IL-17A (mouse, UniProt Q62386 26-158); test: ELISA, coated IL-17A
T6 sequence (looked up): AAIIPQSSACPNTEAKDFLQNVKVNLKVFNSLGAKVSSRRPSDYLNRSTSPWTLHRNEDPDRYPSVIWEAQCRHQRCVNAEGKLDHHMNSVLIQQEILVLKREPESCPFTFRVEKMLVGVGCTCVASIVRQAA
Protocol: as §2

guinea pig IL-17A = guinea pig IL-17A (guinea pig); test: ELISA, coated IL-17A
Protocol: as §2

rat IL-17A = target: T7, rat IL-17A (rat, UniProt Q61453 18-150, limits assumed); test: ELISA, coated IL-17A
T7 sequence (looked up): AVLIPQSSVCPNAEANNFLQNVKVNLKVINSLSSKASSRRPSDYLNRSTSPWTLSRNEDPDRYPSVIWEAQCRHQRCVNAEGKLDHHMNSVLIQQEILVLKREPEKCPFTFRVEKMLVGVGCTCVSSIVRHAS
Protocol: as §2

human IL-17A [8] = target: T4, human IL-17A; test: ELISA, coated IL-17A
Protocol: as §2

human IL-17F [9] = target: T8, human IL-17F (human, UniProt Q96PD4 31-163); test: KinExA, 500 pM Nanobody
T8 construct: GenBank AF384857, expressed in Hek293 as 6-His C-terminal tagged protein; also called hIL-17F; IL-17F-6HIS
T8 sequence: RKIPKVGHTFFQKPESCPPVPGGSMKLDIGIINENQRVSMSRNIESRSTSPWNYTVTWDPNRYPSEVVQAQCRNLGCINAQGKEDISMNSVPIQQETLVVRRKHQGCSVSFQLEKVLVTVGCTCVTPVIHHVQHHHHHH

human IL-17A [10] = target: T4, human IL-17A; test: KinExA, 500 pM Nanobody
human IL-17A [11] = target: T4, human IL-17A; test: SPR, IL-17A-Nanobody complex over captured IL-17RA
Description: (§3) The receptor (IL-17RA or IL-17RC) was captured via its human Fc-tail by an anti-human IgG-Fc antibody coated on the chip.

human IL-17F [12] = target: T8, human IL-17F; test: competition ELISA IL17F-RC
Protocol: as §1

human IL-17F [13] = target: T8, human IL-17F; test: SPR, IL-17F-Nanobody complex over captured IL-17RC
Description: as §3

rat IL-17F = target: T9, rat IL-17F (rat, UniProt Q5BJ95 29-161); test: ELISA, coated IL-17F;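 further: binding ELISA on coated antigen from various species, with bound Nanobodies revealed by an HRP-linked anti-myc antibody and esTMB substrate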
T9 sequence (looked up): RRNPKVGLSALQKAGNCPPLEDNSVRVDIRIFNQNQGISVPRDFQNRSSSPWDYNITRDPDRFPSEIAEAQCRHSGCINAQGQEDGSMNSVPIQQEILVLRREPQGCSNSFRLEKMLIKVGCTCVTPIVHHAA
Protocol: as §2

marmoset IL-17F = target: T10, marmoset IL-17F (marmoset, UniProt A6N6I9 31-163); test: ELISA, coated IL-17F;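 further: binding ELISA on coated antigen from various species, with bound Nanobodies revealed by an HRP-linked anti-myc antibody and esTMB substrate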
T10 sequence (looked up): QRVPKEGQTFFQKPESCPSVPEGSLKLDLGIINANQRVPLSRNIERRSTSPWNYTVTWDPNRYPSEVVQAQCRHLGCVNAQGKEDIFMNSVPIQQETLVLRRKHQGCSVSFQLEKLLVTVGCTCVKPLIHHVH
Protocol: as §2

mouse IL-17F = target: T11, mouse IL-17F (mouse, UniProt Q7TNI7 29-161); test: ELISA, coated IL-17F;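 further: binding ELISA on coated antigen from various species, with bound Nanobodies revealed by an HRP-linked anti-myc antibody and esTMB substrate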
T11 sequence (looked up): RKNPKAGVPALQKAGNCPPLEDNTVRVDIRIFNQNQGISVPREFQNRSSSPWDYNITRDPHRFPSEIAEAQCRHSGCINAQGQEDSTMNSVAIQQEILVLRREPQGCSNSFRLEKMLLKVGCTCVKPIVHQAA
Protocol: as §2

human IL-17F [14] = target: T8, human IL-17F; test: ELISA, coated IL-17F;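 further: binding ELISA on coated antigen from various species, with bound Nanobodies revealed by an HRP-linked anti-myc antibody and esTMB substrate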
Protocol: as §2

human IL-17F [15] = target: T12, human IL-17F (human, UniProt Q96PD4 31-163); test: method not given
T12 construct: also called hIL-17F; rhIL-17F
T12 sequence: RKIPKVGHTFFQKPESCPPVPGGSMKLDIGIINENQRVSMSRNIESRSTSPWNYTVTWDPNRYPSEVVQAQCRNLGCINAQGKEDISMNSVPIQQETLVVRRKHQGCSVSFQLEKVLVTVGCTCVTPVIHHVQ

human IL-17F [16] = target: T8, human IL-17F; test: KinExA, 100 pM Nanobody
Protocol: The affinity of a limited set of formatted Nanobodies was determined using the KinExA.

human IL-17F [17] = target: T8, human IL-17F; test: cell-based or functional assay
human IL-17A [18] = target: T4, human IL-17A; test: cell-based or functional assay; remark: listed apart in the source

T1 sequence (Q16552 24-155 limits assumed, one chain of several): as the sequence (A0A2K5TTB0 entry or part of it) above, with A3T, S8P, S34N, V77I, K78N, R104P counted along it

B1: IL17MS3060 (VHH)
VHH: DVQLVESGGGLVQPGGSLRLSCTASGTIVNIHVMGWYRQAPGKQRELVALIFSGGSADYADSVKGRFTISRDNSKNTVYLQMNSLRPEDTAVYYCAAEIGYYSGGTYYSSEAHWGQGTLVTVSS
notes: variant of IL17MS04G01; basic = A14P, A74S, E81Q, K83R, Q108L
IC50 cell based assay hIL-17A/F (IL-6, HT-1080 cells) [1]: 5.5 nM | IC50 cell based assay hIL-17A (IL-6, HT-1080 cells) (human IL-17A [2]): 0.93 nM | IC50 (human IL-17A [3]): 0.081 nM | koff (Cynomolgus monkey IL-17A): 0.000154 s⁻¹ | koff [4]: 0.000209 s⁻¹ | koff (human IL-17A [5]): 0.00015 s⁻¹ | IC50 (human IL-17A [6]): 0.181 nM

B2: IL17MS3061 (VHH)
VHH: DVQLVESGGGLVQPGGSLRLSCAASGTIVNIHVMGWYRQAPGKQRELVALIFSGGSADYADSVKGRFTISRDNSKNTVYLQMNSLRPEDTAVYYCAAEIGYYSGGTYYSSEAHWGQGTLVTVSS
notes: variant of IL17MS04G01; Kabat numbering
IC50 cell based assay hIL-17A/F (IL-6, HT-1080 cells) [1]: 8.15 nM | IC50 cell based assay hIL-17A (IL-6, HT-1080 cells) (human IL-17A [2]): 0.94 nM | IC50 (human IL-17A [3]): 0.027 nM | koff (Cynomolgus monkey IL-17A): 0.000181 s⁻¹ | koff [4]: 0.000195 s⁻¹ | koff (human IL-17A [5]): 0.000146 s⁻¹

B3: 13E02 (VHH)
VHH: EVQLVESGGGLVQAGGSLRLSCAASGRTYDAMGWLRQAPGKEREFVAAISGSGDDTYYADSVKGRFTISKDNAGITMYLQMNSLKPEDTAVYYCATRRGLYYVWDSNDYENWGQGTQVTVSS
notes: Class 4; also called IL17MS13E02
IC50 (human IL-17A [7]): 0.42 nM | OD (marmoset IL-17A): 1.85 OD | OD (mouse IL-17A): -0.001 OD | OD (guinea pig IL-17A): 0.006 OD | OD (rat IL-17A): 0.003 OD | OD (human IL-17A [8]): 1.79 OD | Kd (human IL-17F [9]): 3.62 nM | Kd (human IL-17A [10]): 0.0359 nM | % Biacore binding (IL-17A-NB)-IL-17RA (human IL-17A [11]): -1.04% | IC50 (human IL-17F [12]): 3.02 nM | % Biacore binding (IL-17F-NB)-IL-17RC (human IL-17F [13]): 7.17% | OD (rat IL-17F): 0.0255 OD | OD (marmoset IL-17F): 0.248 OD | OD (mouse IL-17F): 0.0155 OD | OD (human IL-17F [14]): 1.1 OD

B4: 13E02 Fc fusion (Fc fusion)
chain: EVQLVESGGGLVQAGGSLRLSCAASGRTYDAMGWLRQAPGKEREFVAAISGSGDDTYYADSVKGRFTISKDNAGITMYLQMNSLKPEDTAVYYCATRRGLYYVWDSNDYENWGQGTQVTVSS
notes: also called 13E02 tested as Fc fusion; not shown: hinge and Fc
fold lower affinity on IL-17F than on IL-17A (human IL-17F [15]): ~10 fold

B5: SH-Fc-(GS)2-13B03 (Fc fusion, not shown: a dimerising Fc or GST; small tags and cut ends)
chain: EVQLVESGGGSVQAGDSLRLSCAASGRANSINWFGWFRQTPGKEREFVAGIRWSDAYTEYANSVKGRFTISRDNAKNTVDLQMDSLKPEDTAVYYCVLDLSTVRYWGQGTQVTVSS
notes: also called MSB0010618; SH-(GS)2-Fc-13B03
IC50 (human IL-17A [7]): 0.044 nM | Kd (human IL-17F [16]): 0.145 nM | IC50, hIL-17F induced IL-6, HT-1080, without HSA (human IL-17F [17]): 5.7 nM | Emax, hIL-17A induced IL-6, HT-1080, without HSA (human IL-17A [18]): 100% | IC50, hIL-17A induced IL-6, HT-1080, without HSA (human IL-17A [18]): 0.37 nM
